In paper PMC3695782:

Biological target: HIV-1 reverse transcriptase WT (Human immunodeficiency virus type 1) (UniProt P04585+P04585)
Experiment: EMSA
Conditions: EFdA-MP at primer 3' end; Footprinting: 120 mM sodium cacodylate pH 7, 20 mM NaCl, 6 mM MgCl2, 1 uM EFdA-TP, 7 min pre-incubation with dTTP, then 1 mM ammonium iron sulfate 5 min …

## T/P-EFdA-MP (gel shift)
  binding signal (fold stronger than K65R): 1.3
